The values that follow come from patent publication CN116496388A (BRAVOVAX CO LTD; SHANGHAI BOWO BIOTECHNOLOGY CO LTD, dated 2023).

Test [1] addresses T1, 野生型人5型腺病毒的Hexon蛋白 (人5型腺病毒 (human adenovirus type 5), UniProt P04133 2-952).
T1 construct: also called 野生型人腺病毒5型
Description: Western blot, reduced virus lysate. In general terms: Immunoblotting shows a protein as a band on a membrane.

Test [2] concerns the target T1, 野生型人5型腺病毒的Hexon蛋白. In words: cell immunostaining of virus-infected 293A cells.

T1 sequence (P04133 2-952): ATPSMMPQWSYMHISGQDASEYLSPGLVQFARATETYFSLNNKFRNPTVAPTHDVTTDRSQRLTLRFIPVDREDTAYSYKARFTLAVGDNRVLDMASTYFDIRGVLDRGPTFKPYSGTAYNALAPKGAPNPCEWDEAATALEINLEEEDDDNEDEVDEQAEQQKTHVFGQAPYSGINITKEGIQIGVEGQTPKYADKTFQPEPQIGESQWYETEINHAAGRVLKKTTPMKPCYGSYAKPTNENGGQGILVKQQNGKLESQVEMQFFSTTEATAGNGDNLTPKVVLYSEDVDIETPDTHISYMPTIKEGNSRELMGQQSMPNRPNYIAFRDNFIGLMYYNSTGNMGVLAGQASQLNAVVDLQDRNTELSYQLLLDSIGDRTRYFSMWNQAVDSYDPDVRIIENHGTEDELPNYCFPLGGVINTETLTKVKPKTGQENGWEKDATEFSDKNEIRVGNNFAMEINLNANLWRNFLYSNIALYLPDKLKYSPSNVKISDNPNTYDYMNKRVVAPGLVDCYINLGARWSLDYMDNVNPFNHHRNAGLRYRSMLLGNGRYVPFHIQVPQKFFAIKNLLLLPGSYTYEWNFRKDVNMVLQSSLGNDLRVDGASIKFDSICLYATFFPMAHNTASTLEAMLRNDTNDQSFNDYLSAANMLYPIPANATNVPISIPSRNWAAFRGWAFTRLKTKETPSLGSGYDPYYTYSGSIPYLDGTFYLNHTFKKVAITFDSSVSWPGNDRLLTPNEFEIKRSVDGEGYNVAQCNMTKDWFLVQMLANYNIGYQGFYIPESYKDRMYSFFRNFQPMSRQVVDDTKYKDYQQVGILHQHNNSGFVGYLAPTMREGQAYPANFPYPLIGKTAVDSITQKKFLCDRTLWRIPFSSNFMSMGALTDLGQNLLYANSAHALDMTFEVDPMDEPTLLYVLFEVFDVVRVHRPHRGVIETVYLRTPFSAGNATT

B1: AdC68-Hexon单克隆抗体 (hybridoma-derived, purified from mouse ascites) (antibody, V domains shown)
VH: EVQLVETGGGLVQPKGSLKLSCAVSGLPFNTKAMDWVRQAPGEGLEWVARIRTKSNNYATYYADSVKDRFTISRDDAQSMLYLQMTNLKTEDTAMYYCVRDEASWGHGTLVTVSA
VL: DIVMTQIPLSLPVSLGDQASISCRSSQSLVHSDGNTYLHWYLQKPGQSPKLLIYKVSNRFSGVPDRFSGSGSGTDFTLKISRVEAEDLGVYFCSQSTHFPWTFGGGTKLEIK
notes: Mouse IgG1 (all positive hybridomas were IgG1); also called 抗AdC68-Hexon单克隆抗体; 亲本鼠源抗体
With B1, the binding result in test [1] is “no binding (tested: antibody diluted 1:10000)”.

B2: 重组抗AdC68-Hexon小鼠单克隆抗体 (antibody, V domains shown)
VH: EVQLVETGGGLVQPKGSLKLSCAVSGLPFNTKAMDWVRQAPGEGLEWVARIRTKSNNYATYYADSVKDRFTISRDDAQSMLYLQMTNLKTEDTAMYYCVRDEASWGHGTLVTVSA
VL: DIVMTQIPLSLPVSLGDQASISCRSSQSLVHSDGNTYLHWYLQKPGQSPKLLIYKVSNRFSGVPDRFSGSGSGTDFTLKISRVEAEDLGVYFCSQSTHFPWTFGGGTKLEIKR
notes: domain: 小鼠IgGκ轻链恒定区; Expressed in HEK293, assembled as IgG1k, Protein A purified; also called 重组单克隆抗体; 重组抗AdC68-Hexon鼠单克隆抗体; not shown: mouse IgG1 heavy chain constant region (IgG1CH, GenBank No. NC_000078.7, a genomic entry)
As for B2, in test [2], the binding result is “no binding”.
